This is an account of results in patent publication US20230416343A1 (SORRENTO THERAPEUTICS, published 2023).

In this assay the target is S protein of live SARS-CoV-2 WA-1/2020 isolate (SARS-CoV-2, UniProt P0DTC2 14-1273). Nature of the assay: cell-based or functional assay.

B1: S1D7270LALA antibody (STI-2020) (antibody, V domains shown)
VH: EVQLVESGGGLIQPGGSLRLSCAASGFTVSSNYMSWVRQAPGKGLEWVSIIYPGGSTEYADSVKGRFTISRDNSRNTLYLQMNSLRAEDTAVYYCARELGYYGMDVWGQGTTVTVSS
VL: DIQMTQSPSSVSASVGDRVTITCRASQGISTWLVWYQQKPGKAPNLLIYGASSLQSGVPSRFSGSGSGTDFTLTISSLQPEDFATYYCQQANAYPYTFGQGTKLEIK
B1: the “IC50, inhibition of cytopathic effect (CPE) on Vero E6 cells, live virus” value turned out to be 0.055 µg/mL.
